{"source": "patent US20170281764A1", "about": "(JN BIOSCIENCES, published 2017)", "binders": {"B1": {"name": "HuTIG1-IgG1.AA (humanized IgG1/kappa form of TIG1, L234A/L235A) (antibody)", "heavy": "not shown", "light": "DIQMTQSPSSLSASVGDRVTITCRASKSISKYLAWYQQKPGKAPKLLIYSGSTLQSGVPSRFSGSGSGTDFTLTISSLQPEDFATYYCQQHNEYPWTFGGGTKVEIKRTVAAPSVFIFPPSDEQLKSGTASVVCLLNNFYPREAKVQWKVDNALQSGNSQESVTEQDSKDSTYSLSSTLTLSKADYEKHKVYACEVTHQGLSSPVTKSFNRGEC", "notes": "Mature full chains; also called humanized TIG1"}}, "key": {"[1]": {"molecular_target": "T1, HA-tagged human TIGIT with mutation Q35A, on CHO-K1 cells (human, UniProt Q495A1 22-244)", "T1 construct": "Built as for m17", "T1 sequence": "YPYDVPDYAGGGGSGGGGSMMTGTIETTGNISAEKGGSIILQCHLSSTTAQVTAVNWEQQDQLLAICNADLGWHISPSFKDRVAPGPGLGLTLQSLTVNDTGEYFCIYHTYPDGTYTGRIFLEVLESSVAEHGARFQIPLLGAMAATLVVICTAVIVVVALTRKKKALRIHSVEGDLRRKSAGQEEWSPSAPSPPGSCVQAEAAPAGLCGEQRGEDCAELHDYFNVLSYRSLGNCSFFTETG", "assay": "flow cytometry on CHO-K1 cells transiently expressing HA-tagged TIGIT mutant; Q35A mutant", "procedure": "For flow cytometry analysis of the anti-hTIGIT antibody binding epitope, HA-tagged human TIGIT proteins with or without single amino acid mutation were transiently transfected into CHO-K1 cells. After 24 hr, transfected cells were suspended in HBSS buffer (Thermo Fisher Scientific, Cat#14175095), and incubated with HuTIG1-IgG1.AA antibody at varying concentrations in 50 μL volume. After 1 hr incubation at 4° C., cells were washed and a second incubation with 50 μL Alexa488 conjugated anti-human IgG(H+L) secondary antibody (Thermo Fisher Scientific, Cat#A-11013) was performed to detect cells bound by antibody. Cells were incubated with an anti-HA antibody (Sigma, Cat# H7411) as a positive control, and non-transfected CHO-K1 cells were used as a negative control. The cells were analyzed on an Attune NxT Cytometer (Thermo Fisher Scientific) and the data were processed using FlowJo software. For each mutant, the saturating antibody binding MFI (mean fluorescence intensity) were normalized to 100% POC (percent of control), and no primary antibody binding control MFI were normalized to 0% POC. Data were then fit to a four parameter non-linear sigmoidal curve using GraphPad Prism 7 curve fitting using following formula: Y=Bottom+(Top−Bottom)/(1+10^{((Log EC}^₅₀^{-X)*HillSlope)}). […]"}, "[2]": {"molecular_target": "T2, HA-tagged human TIGIT with mutation D51A, on CHO-K1 cells (human, UniProt Q495A1 22-244)", "T2 construct": "Built as for m17", "T2 sequence": "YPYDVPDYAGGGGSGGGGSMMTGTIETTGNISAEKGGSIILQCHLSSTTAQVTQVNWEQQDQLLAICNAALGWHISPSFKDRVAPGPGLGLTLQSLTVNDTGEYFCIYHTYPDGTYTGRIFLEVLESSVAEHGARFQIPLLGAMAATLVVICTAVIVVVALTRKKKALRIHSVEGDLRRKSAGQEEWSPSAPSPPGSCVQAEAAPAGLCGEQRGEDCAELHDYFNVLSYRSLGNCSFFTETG", "assay": "flow cytometry titration on CHO-K1 cells transiently expressing the HA-tagged TIGIT mutant, Alexa488 anti-human IgG detection, four-parameter fit of percent of control, nM is from the concentration axis and paragraph 252", "procedure": "(§1) For flow cytometry analysis of the anti-hTIGIT antibody binding epitope, HA-tagged human TIGIT proteins with or without single amino acid mutation were transiently transfected into CHO-K1 cells. After 24 hr, transfected cells were suspended in HBSS buffer (Thermo Fisher Scientific, Cat#14175095), and incubated with HuTIG1-IgG1.AA antibody at varying concentrations in 50 μL volume. After 1 hr incubation at 4° C., cells were washed and a second incubation with 50 μL Alexa488 conjugated anti-human IgG(H+L) secondary antibody (Thermo Fisher Scientific, Cat#A-11013) was performed to detect cells bound by antibody. Cells were incubated with an anti-HA antibody (Sigma, Cat# H7411) as a positive control, and non-transfected CHO-K1 cells were used as a negative control. The cells were analyzed on an Attune NxT Cytometer (Thermo Fisher Scientific) and the data were processed using FlowJo software. For each mutant, the saturating antibody binding MFI (mean fluorescence intensity) were normalized to 100% POC (percent of control), and no primary antibody binding control MFI were normalized to 0% POC. Data were then fit to a four parameter non-linear sigmoidal curve using GraphPad Prism 7 curve fitting using following formula: Y=Bottom+(Top−Bottom)/(1+10^{((Log EC}^₅₀^{-X)*HillSlope)}).\n(§2) All of these residues co-locate to one discrete region on the front ([…] structure of the TIGIT IgV extracellular domain (FIG. 28)."}, "[3]": {"molecular_target": "T3, HA-tagged human TIGIT with mutation H90A, on CHO-K1 cells (human, UniProt Q495A1 22-244)", "T3 construct": "Built as for m17", "T3 sequence": "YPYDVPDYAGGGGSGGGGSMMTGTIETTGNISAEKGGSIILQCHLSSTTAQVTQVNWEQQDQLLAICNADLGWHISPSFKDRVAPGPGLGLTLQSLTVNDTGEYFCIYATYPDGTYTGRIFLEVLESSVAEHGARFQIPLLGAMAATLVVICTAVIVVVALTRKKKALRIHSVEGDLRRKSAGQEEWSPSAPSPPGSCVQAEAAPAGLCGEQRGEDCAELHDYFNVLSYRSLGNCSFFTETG", "assay": "flow cytometry titration on CHO-K1 cells transiently expressing the HA-tagged TIGIT mutant, Alexa488 anti-human IgG detection, four-parameter fit of percent of control, nM is from the concentration axis and paragraph 252", "procedure": "as §1, §2"}, "H55A": {"molecular_target": "T4, H55A", "T4 construct": "also called HA-tagged human TIGIT with mutation H55A, on CHO-K1 cells", "T4 single chain": "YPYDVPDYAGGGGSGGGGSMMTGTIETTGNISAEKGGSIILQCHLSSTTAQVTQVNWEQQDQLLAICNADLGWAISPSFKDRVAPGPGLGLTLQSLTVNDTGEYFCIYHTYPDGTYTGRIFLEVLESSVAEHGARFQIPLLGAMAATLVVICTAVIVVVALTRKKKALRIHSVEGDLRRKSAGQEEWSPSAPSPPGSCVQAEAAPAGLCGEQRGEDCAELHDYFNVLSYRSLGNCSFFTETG", "assay": "flow cytometry titration on CHO-K1 cells transiently expressing the HA-tagged TIGIT mutant, Alexa488 anti-human IgG detection, four-parameter fit of percent of control, nM is from the concentration axis and paragraph 252", "procedure": "as §1, §2"}, "L52A": {"molecular_target": "T5, L52A", "T5 construct": "also called HA-tagged human TIGIT with mutation L52A, on CHO-K1 cells", "T5 single chain": "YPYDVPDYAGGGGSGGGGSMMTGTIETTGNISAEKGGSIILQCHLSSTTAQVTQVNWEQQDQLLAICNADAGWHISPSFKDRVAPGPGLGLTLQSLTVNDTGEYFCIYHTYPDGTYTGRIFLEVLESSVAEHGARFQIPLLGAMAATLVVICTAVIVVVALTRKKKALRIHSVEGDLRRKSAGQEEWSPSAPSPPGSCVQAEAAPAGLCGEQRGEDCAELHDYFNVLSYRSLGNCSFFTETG", "assay": "flow cytometry titration on CHO-K1 cells transiently expressing the HA-tagged TIGIT mutant, Alexa488 anti-human IgG detection, four-parameter fit of percent of control, nM is from the concentration axis and paragraph 252", "procedure": "as §1, §2"}, "I47A": {"molecular_target": "T6, I47A", "T6 construct": "also called HA-tagged human TIGIT with mutation I47A, on CHO-K1 cells", "T6 single chain": "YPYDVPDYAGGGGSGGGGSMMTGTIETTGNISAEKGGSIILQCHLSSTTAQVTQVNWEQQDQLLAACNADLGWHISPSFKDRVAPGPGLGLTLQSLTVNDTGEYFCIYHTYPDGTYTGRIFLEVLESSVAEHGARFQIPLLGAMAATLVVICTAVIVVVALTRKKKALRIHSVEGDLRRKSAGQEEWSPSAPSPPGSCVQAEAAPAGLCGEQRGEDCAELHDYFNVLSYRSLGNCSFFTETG", "assay": "flow cytometry titration on CHO-K1 cells transiently expressing the HA-tagged TIGIT mutant, Alexa488 anti-human IgG detection, four-parameter fit of percent of control, nM is from the concentration axis and paragraph 252", "procedure": "as §1, §2"}}}
{"binder": "B1", "values": [{"measurement": "EC50", "setting": "[1]", "value": 176, "unit": "nM"}, {"measurement": "EC50", "setting": "[2]", "value": 30.5, "unit": "nM"}, {"measurement": "EC50", "setting": "[3]", "value": 104, "unit": "nM"}, {"measurement": "EC50", "setting": "H55A", "value": 1.19, "unit": "nM"}, {"measurement": "EC50", "setting": "L52A", "value": 2.67, "unit": "nM"}, {"measurement": "EC50", "setting": "I47A", "value": 1.27, "unit": "nM"}]}
